Experimental data reported in patent US20250206836A1 (ONA THERAPEUTICS S L, published 2025).
Changes are numbered by the printed parent chain. In names and notes the source's numbering stands.

B1: 14G04 (antibody, human IgG1, V domains shown)
VH: QVQLQQSGAELVRSGASVRLSCTASGFNIKDYYIHWVKQRPEQGLEWIGWIDPENGDTEYAPRFQDKATMTADTSSNTAYLQLSSLTSEDTAVYYCNGWLLSGNGMDYWGQGTSVTVSS
VL: DIVMTQSHKFMSTSVGDRVSITCKASQDVGTAVAWYQQKPGQSPKLLIYWASTRHTGVPDRFTGSGSGTDFTLTISNVQSEDLADYFCQQYSSYPTFGGGTKLEIK
notes: Chimeric: mouse variable regions on human IgG1 LALA (L234A/L235A); also called 014G04
B2: 33G04 (antibody, human IgG1, V domains shown)
VH: AVTLDESGGGLQTPGGALSLVCKASGFDFSSYAMGWVRQAPGKGLEWVAGKAKDGGGTAYGSAVKGRATISRDNGQSTVRLQLSNLRAEDTGVYYCAKSAYGDWFYGSSGPYADSIDAWGHGTEVIVSS
VL: ALTQPSSVSASPGETVKITCSGSSDSWYGWYQQKSPGSALVTVIYDSTNRPSSIPSRFSGSTSGSTGTLTITGVRADDEAVYFCGSFDSSTDSTAFGAGTTLTVL
notes: Chimeric: chicken variable regions on human IgG1 LALA (L234A/L235A); also called 033G04
B3: 34G04 (antibody, human IgG1, V domains shown)
VH: B2 VH
VL: ALTQPSSVSANPGETVKITCSGGDNYAGSYYYGWYQQKSPGSAPVTVIYDDTNRPADIPSRFSGSTSGSTNTLTITGVRAEDEAVYFCGGWDSINDRNIFGAGTTLTVL
notes: Chimeric: chicken variable regions on human IgG1 LALA (L234A/L235A); also called 034G04
B4: 73G06 (antibody, human IgG1, kappa)
heavy: EVQLVQSGAEVKKPGSSVKVSCKASGYRFSDYEMQWVRQAPGQGLEWMGGIDPETGGIAYAQKFQGRVTLTADKSTSTAYMELSSLRSEDTAVYYCTRKLDFDYWGQGTLVTVSSASTKGPSVFPLAPSSKSTSGGTAALGCLVKDYFPEPVTVSWNSGALTSGVHTFPAVLQSSGLYSLSSVVTVPSSSLGTQTYICNVNHKPSNTKVDKKVEPKSCDKTHTCPPCPAPESTRGPSVFLFPPKPKDTLYITREPEVTCVVVDVSHEDPEVKFNWYVDGVEVHNAKTKPREEQYNSTYRVVSVLTVLHQDWLNGKEYKCKVSNKALPAPIEKTISKAKGQPREPQVYTLPPSRDELTKNQVSLTCLVKGFYPSDIAVEWESNGQPENNYKTTPPVLDSDGSFFLYSKLTVDKSRWQQGNVFSCSVMHEALHNHYTQKSLSLSPGK
light: ETTVTQSPAFMSATTGDKVTISCITSTDIDDDMNWYQQKPGEPPKLLISEGNTLRPGVPSRFSSSGYGTDFTFTINNIESEDAAYYYCLQSDNLPLTFGQGTKLEIKRTVAAPSVFIFPPSDEQLKSGTASVVCLLNNFYPREAKVQWKVDNALQSGNSQESVTEQDSKDSTYSLSSTLTLSKADYEKHKVYACEVTHQGLSSPVTKSFNRGEC
notes: Humanized 11G04, human IgG1 STR
B5: 78G06 (antibody, human IgG1, kappa)
heavy: B4 heavy with E1Q
light: B4 light with N52S
notes: as for B4
B6: 79G06 (antibody, human IgG1, kappa)
heavy: B4 heavy
light: B4 light with T15P, N52S
notes: as for B4
B7: 76G06 (antibody, human IgG1, kappa)
heavy: B4 heavy with E1Q
light: B4 light with T15P
notes: as for B4
B8: 75G06 (antibody, human IgG1, kappa)
heavy: B4 heavy
light: B4 light with T15P
notes: as for B4
B9: 77G06 (antibody, human IgG1, kappa)
heavy: B4 heavy
light: B4 light with N52S
notes: as for B4
B10: 80G06 (antibody, human IgG1, kappa)
heavy: B4 heavy with E1Q
light: B4 light with T15P, N52S
notes: as for B4
B11: 74G06 (antibody, human IgG1, kappa)
heavy: B4 heavy with E1Q
light: B4 light
notes: as for B4
B12: 36G04 (antibody, human IgG1, V domains shown)
VH: AVTLDESGGGLQTPGGALSLVCKASGFIFSSYGMGWVRQAPGKGLEYIAAISNDGSKADYGAAVKGRATISRDNGQSTVRLQLNNLRAEDTATYYCAKSADTGYCSWSACIADSIDAWGHGTEVIVSS
VL: ALTQPSSVSAIPGETVKITCSGGGSDYGWYQQKSPGSAPVTVIYWSDNRPSNIPSRFSGSESGSTATLTITGVRAEDEAVYFCGGYDSSGSGMFGAGTTLTVL
notes: Chimeric: chicken variable regions on human IgG1 LALA (L234A/L235A); also called 036G04
B13: 35G04 (antibody, human IgG1, V domains shown)
VH: AVTLDESGGGLQTPGGALSLVCKASGFTFSNYGMGWMRQAPGKGLEFVAKIYKDGGYTGYGAAVDGRATISRDDGQSTVRLQLNDLRAEDTATYFCAKAADSGYLYITDSIDAWGHGTEVIVSS
VL: ALTQPSSVSANPGETVKITCSGGSGSYGWFQQKSPGNAPVTVIYHNDQRPSDIPSRFSGSKSGSTATLTITEVQADDEAVYVCGGYDNDNDAGIFGAGTTLTVL
notes: Chimeric: chicken variable regions on human IgG1 LALA (L234A/L235A); also called 035G04
B14: 7G04 (antibody, human IgG1, V domains shown)
VH: QVQMKESGAELVRPGASVKLSCKALGYTFTDYEIQWVKQTPVHGLEWIGGIHPGSSGIVYNQKFKGKATLTADKSSSTAYMELSSLTSEDSAVYYCTRGGGYDGAWFAYWGQGSLVTVSA
VL: ETTVTQSPASLSMAIGEKVTIRCITSTDIDDDMNWYQQKPGEPPKLLISEGNTLRPGVPSRFSSSGYGTDFVFTIENMLSEDVADYYCLQSDNLPFTFGSGTKLEIK
notes: Chimeric: mouse variable regions on human IgG1 LALA (L234A/L235A); also called 07G04; 007G04
B15: 28G04 (antibody, human IgG1, V domains shown)
VH: EVQLQQSGPELVKPGASVKISCKTSGYTFTEYTIHWVKQSHGKSLEWIGGIIPNNGGSSHKQNFKDKATLTVDKSSSTAYMELRSLTSEDSAVYYCARAGDYAFDYWGQGTTLTVSS
VL: B14 VL with D92G, N93T
notes: Chimeric: mouse variable regions on human IgG1 LALA (L234A/L235A); also called 028G04
B16: 11G04 (antibody, human IgG1, V domains shown)
VH: EVQLQQSGAELVRPGASVTLSCKASGYRFSDYEMQWVKQTPVHGLEWIGGIDPETGGIAYNQKFKVKATLTADKSSSTAFMELRSLTSEDSAVYYCTRKLDFDYWGQGTTLTVSS
VL: B14 VL with M13V, I15T, F96L, S100A, I106L
notes: Chimeric: mouse variable regions on human IgG1 LALA (L234A/L235A); also called 011G04
B17: 11G06 (antibody, human IgG1, V domains shown)
VH: B16 VH
VL: B14 VL with M13V, I15T, F96L, S100A, I106L

What was measured:
[1] = molecular target: T1, human CD36 (on HEK 293 or SCC25 cells) (human, UniProt P16671 2-472); test: cell-based or functional assay
[2] = molecular target: T1, human CD36 (on HEK 293 or SCC25 cells); test: cell-based or functional assay; remark: listed apart in the source
human CD36 (His-tagged) = molecular target: T2, human CD36 (His-tagged) (human, UniProt P16671 30-439); test: SPR (Biacore T200), His-captured CD36, bivalent analyte model
T2 construct: not shown: His tag

[3] = molecular target: T3, purified biotin-tagged human CD36 (human, UniProt P16671 30-439, limits assumed, biotin tag, site not stated); test: AlphaScreen competition; competitor 1G04 on acceptor beads;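 note: streptavidin donor beads excited at 680 nm release singlet oxygen, and the light signal needs a nearby acceptor bead, with 30 min donor-bead incubation at 25 °C in the dark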
[4] = molecular target: T1, human CD36 (on HEK 293 or SCC25 cells); test: cell-based or functional assay; remark: listed apart in the source
[5] = molecular target: T4, nonhuman primate CD36 (on HEK 293 cells) (cynomolgus monkey / rhesus macaque, UniProt P16671 2-472 (human entry)); test: FACS, HEK 293 cells transiently overexpressing CD36;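 note: antibody binding to transfected cells detected by flow cytometry with a fluorescent anti-human secondary antibody, EC50 from a four-parameter sigmoidal fit of mean fluorescence intensity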
T4 construct: also called non-human primate CD36 (cynomolgus)
Procedure: (§1) After transiently transfecting the HEK 293 cells with a CD36 expression construct, cells were treated with three-fold serial dilution of each candidate antibody (10 dilutions starting at 500 nM). […] After incubation with the cells, an anti-human fluorescently labelled antibody was added to the cell media, allowed to incubate further, and the unbound antibody was washed off of the cells. Subsequently, the cells were subjected to FACS analysis to determine antibody binding to the cells. The results were fitted to a sigmoidal titration curve. Using a nonlinear regression model, the EC₅₀ values for each antibody were calculated from the GeoMFI and MFI values using the log(agonist) versus response (four parameters) fitting on the data transformed according to X=Log[X] in GraphPad PRISM.

[6] = molecular target: T5, mouse CD36 (on HEK 293 cells) (mouse, UniProt Q08857 1-472); test: as above
T5 construct: also called Murine CD36
Procedure: as §1

[7] = molecular target: T1, human CD36 (on HEK 293 or SCC25 cells); test: as above
Procedure: as §1

[8] = molecular target: T1, human CD36 (on HEK 293 or SCC25 cells); test: FACS, SCC25 cells stably overexpressing human CD36
Procedure: as §1

[9] = molecular target: T3, purified biotin-tagged human CD36; test: AlphaScreen competition; competitor 11G04 on acceptor beads
Procedure: This was done using the AlphaScreen® bead-based microplate assay. […] AlphaLISA® Streptavidin Donor Beads were then added and the mix incubated for 30 min at 25° C. in the dark. The donor bead contains a photosensitizer, which upon excitation by light at 680 nm, converts oxygen (O₂) into an excited form, singlet oxygen. Singlet oxygen molecules have a reduced lifetime (4 microseconds half-life) and can diffuse approximately 200 nm in solution before falling back to ground state. In the absence of acceptor beads, the singlet oxygen molecules fall back to ground state without producing any light signal.

[10] = molecular target: T1, human CD36 (on HEK 293 or SCC25 cells); test: FACS, HEK 293 cells transiently overexpressing human CD36
Procedure: After incubation with the cells, an anti-human fluorescently labelled antibody was added to the cell media, allowed to incubate further, and the unbound antibody was washed off of the cells. Subsequently, the cells were subjected to FACS analysis to determine antibody binding to the cells. The results were fitted to a sigmoidal titration curve. Using a nonlinear regression model, the EC₅₀ values for each antibody were calculated from the GeoMFI and MFI values using the log(agonist) versus response (four parameters) fitting on the data transformed according to X=Log[X] in GraphPad PRISM.
After transiently transfecting the HEK 293 cells with a CD36 expression construct, cells were treated with three-fold serial dilution of each candidate antibody (10 dilutions starting at 500 nM). […] Antibody binding to cells was measured by FACS as above.
Throughout, for Percent Fatty Acid Uptake Inhibition: test concentration or dose not given here.

T4 sequence (P16671 other isoform, or with tags, fused parts or gaps limits assumed): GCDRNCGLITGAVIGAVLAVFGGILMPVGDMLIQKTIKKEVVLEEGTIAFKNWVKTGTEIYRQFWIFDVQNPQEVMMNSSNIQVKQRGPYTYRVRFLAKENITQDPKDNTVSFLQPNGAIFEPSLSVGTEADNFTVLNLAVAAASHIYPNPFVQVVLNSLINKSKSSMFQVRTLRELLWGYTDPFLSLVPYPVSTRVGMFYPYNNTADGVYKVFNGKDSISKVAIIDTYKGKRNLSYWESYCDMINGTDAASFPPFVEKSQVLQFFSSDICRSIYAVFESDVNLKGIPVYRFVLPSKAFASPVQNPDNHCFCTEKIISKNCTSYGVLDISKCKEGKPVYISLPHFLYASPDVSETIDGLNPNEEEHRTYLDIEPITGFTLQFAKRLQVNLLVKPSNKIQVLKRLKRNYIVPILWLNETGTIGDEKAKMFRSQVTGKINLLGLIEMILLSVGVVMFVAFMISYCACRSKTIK
T5 sequence (Q08857 whole entry): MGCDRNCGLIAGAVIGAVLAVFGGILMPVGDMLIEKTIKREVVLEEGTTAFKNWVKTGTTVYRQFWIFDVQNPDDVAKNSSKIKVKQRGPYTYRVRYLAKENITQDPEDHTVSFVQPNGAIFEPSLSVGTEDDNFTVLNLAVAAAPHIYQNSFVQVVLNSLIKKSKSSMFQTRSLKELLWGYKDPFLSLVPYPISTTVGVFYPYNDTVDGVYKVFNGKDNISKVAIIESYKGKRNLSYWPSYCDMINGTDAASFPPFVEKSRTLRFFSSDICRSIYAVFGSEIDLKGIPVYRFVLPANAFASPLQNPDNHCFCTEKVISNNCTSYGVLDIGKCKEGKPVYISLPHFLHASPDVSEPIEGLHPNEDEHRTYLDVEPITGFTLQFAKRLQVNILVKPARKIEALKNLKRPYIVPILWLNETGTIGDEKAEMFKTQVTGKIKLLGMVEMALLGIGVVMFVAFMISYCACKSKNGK
T1 sequence (P16671 2-472 limits assumed): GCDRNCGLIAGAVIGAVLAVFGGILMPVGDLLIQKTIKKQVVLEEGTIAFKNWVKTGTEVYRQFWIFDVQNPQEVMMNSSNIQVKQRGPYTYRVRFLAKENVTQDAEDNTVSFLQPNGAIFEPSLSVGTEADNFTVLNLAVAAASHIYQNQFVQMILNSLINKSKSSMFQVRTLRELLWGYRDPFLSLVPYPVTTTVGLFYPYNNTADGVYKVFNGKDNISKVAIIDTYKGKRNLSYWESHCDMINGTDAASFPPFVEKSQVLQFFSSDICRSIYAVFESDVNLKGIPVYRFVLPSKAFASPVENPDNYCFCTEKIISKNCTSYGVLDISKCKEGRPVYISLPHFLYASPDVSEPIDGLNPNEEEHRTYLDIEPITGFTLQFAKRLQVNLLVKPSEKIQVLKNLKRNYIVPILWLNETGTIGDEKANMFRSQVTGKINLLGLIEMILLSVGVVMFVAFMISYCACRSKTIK
T2 sequence (P16671 30-439 limits assumed): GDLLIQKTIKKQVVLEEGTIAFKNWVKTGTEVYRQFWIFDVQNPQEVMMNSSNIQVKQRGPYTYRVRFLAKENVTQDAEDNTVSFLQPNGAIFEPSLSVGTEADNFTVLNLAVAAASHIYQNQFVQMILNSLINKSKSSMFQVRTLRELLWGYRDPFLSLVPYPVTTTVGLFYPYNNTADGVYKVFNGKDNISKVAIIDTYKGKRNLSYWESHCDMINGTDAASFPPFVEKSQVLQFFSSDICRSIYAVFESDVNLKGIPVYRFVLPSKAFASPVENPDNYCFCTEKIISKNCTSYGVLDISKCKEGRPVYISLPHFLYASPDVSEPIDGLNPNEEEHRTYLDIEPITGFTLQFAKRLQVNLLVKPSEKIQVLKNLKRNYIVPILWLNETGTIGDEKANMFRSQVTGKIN
T3 sequence (P16671 30-439 limits assumed): as above

| Binder | Percent Fatty Acid Uptake Inhibition [1] | IC50 of fatty acid uptake inhibition (BODIPY FL C16, HEK hCD36 cells) [2] | Kd (human CD36 (His-tagged)) | koff (human CD36 (His-tagged)) | kon (human CD36 (His-tagged)) | EC50 [3] | IC50 of oxLDL uptake inhibition (DiI-oxLDL, SCC25 cells) [4] | EC50 [5] | EC50 [6] | EC50 [7] | EC50 [8] | EC50 [9] | EC50 [10] |
| --- | --- | --- | --- | --- | --- | --- | --- | --- | --- | --- | --- | --- | --- |
| B1 | 45.1% | 130 pM | 2300 pM | 0.0072 s⁻¹ | 3.1e+06 M⁻¹ s⁻¹ | 310 pM | 350 pM | 880 pM | 1570 pM | 1470 pM | 410 pM |  |  |
| B2 |  | 100 pM |  |  |  | 1580 pM | 280 pM | 520 pM | 4330 pM | 310 pM |  | 3680 pM |  |
| B3 |  | 200 pM |  |  |  | 2470 pM | 1060 pM | 1400 pM | 6750 pM | 560 pM |  | 4820 pM |  |
| B4 |  |  |  |  |  |  |  |  |  |  |  |  | 870 pM |
| B5 |  |  |  |  |  |  |  |  |  |  |  |  | 1150 pM |
| B6 |  |  |  |  |  |  |  |  |  |  |  |  | 650 pM |
| B7 |  |  |  |  |  |  |  |  |  |  |  |  | 880 pM |
| B8 |  |  |  |  |  |  |  |  |  |  |  |  | 980 pM |
| B9 |  |  |  |  |  |  |  |  |  |  |  |  | 810 pM |
| B10 |  |  |  |  |  |  |  |  |  |  |  |  | 650 pM |
| B11 |  |  |  |  |  |  |  |  |  |  |  |  | 1100 pM |
| B12 |  | 810 pM |  |  |  | 570 pM | 90 pM | 290 pM | 660 pM | 330 pM |  | 1040 pM |  |
| B13 |  | 40 pM |  |  |  | 660 pM | 110 pM | 590 pM | 2250 pM | 630 pM |  | 1350 pM |  |
| B14 | 37.4% | 1000 pM | 4900 pM | 0.0035 s⁻¹ | 710000 M⁻¹ s⁻¹ | 950 pM | 270 pM | 4160 pM | 3730 pM | 480 pM | 680 pM |  |  |
| B15 | 39.7% | 90 pM | 14000 pM | 0.013 s⁻¹ | 870000 M⁻¹ s⁻¹ | 4690 pM | 1670 pM | 7770 pM | 8500 pM | 600 pM | 950 pM |  |  |
| B16 | 41.6% | 70 pM | 19000 pM | 0.022 s⁻¹ | 1.2e+06 M⁻¹ s⁻¹ |  | 1170 pM | 8930 pM | 11200 pM | 450 pM | 460 pM |  | 490 pM |
| B17 |  |  |  |  |  |  |  |  |  |  |  |  | 760 pM |
